Measurements from patent publication US10301203B2, “Chloroperoxidase-catalyzed degradation of pharmaceutical pollutants in wastewater” (THE FLORIDA INTERNATIONAL UNIVERSITY BOARD OF TRUSTEES, priority 2017, dated 2019).

Columns and labels:
Type in all cases: biochemical
Settings in all cases: CPO Rz=1.03
[1] = Standard MCD assay, halogenation activity of CPO
Protocol: (§1) The halogenation activity of CPO used in this study was 4232 U·mL^−1 based on the standard MCD assay (Hager et al., 1966). The aromatic hydroxylation activity (3563 U·mL-1) of the enzyme was determined by monitoring the hydroxylation of naphthalene into I-naphthol (Kluge et al., 2007). The classic peroxidase activity of the enzyme determined using ABTS as the substrate was 3071 U·mL^−1 (Manoj et al., 2008).

[2] = Aromatic hydroxylation activity of CPO, naphthalene hydroxylation
Protocol: as §1

[3] = Classic peroxidase activity of CPO, ABTS substrate
Protocol: as §1

B1: CPO: heme-containing glycoprotein secreted by the fungus Caldariomyces fumago (protein, UniProt P04963 21-319, looked up)
Chloroperoxidase: QEPGSGIGYPYDNNTLPYVAPGPTDSRAPCPALNALANHGYIPHDGRAISRETLQNAFLNHMGIANSVIELALTNAFVVCEYVTGSDCGDSLVNLTLLAEPHAFEHDHSFSRKDYKQGVANSNDFIDNRNFDAETFQTSLDVVAGKTHFDYADMNEIRLQRESLSNELDFPGWFTESKPIQNVESGFIFALVSDFNLPDNDENPLVRIDWWKYWFTNESFPYHLGWHPPSPAREIEFVTSASSAVLAASVTSTPSSLPSGAIGPGAEAVPLSFASTMTPFLLATNAPYYAQDPTLGPND
Q: For B1, which halogenation activity [1] is on record?
A: 4232 U·mL^−1

Q: And the aromatic hydroxylation activity [2]?
A: 3563 U·mL-1

Q: What about the classic peroxidase activity [3] of the same molecule?
A: 3071 U·mL^−1
